In publication PMC9481563, “Structural insights into the pSer/pThr dependent regulation of the SHP2 tyrosine phosphatase in insulin and CD28 signaling” (Nature Communications, 2022):
Each block holds one binder with its values, some of them ahead of it. Where no end group is shown, it is not given here. [ ]: non-standard residue; d: D form. pY = N[C@@H](Cc1ccc(OP(=O)(O)O)cc1)C(=O)O; pT = C[C@@H](OP(=O)(O)O)[C@H](N)C(=O)O; pS = N[C@@H](COP(=O)(O)O)C(=O)O

Experiments:
Experiment in all cases: fluorescence polarisation; competitive titration: labelled CF-ppIRS1 and protein both fixed (50-80% saturation), unlabelled competitor peptide varied; triplicates; Kd from cubic fit
Settings in all cases: both partners purified
[1] = molecular target: T1, PIK3R1 (p85) N-terminal SH2 domain (321-433) (human, UniProt P27986 321-433)
T1 construct: PIK3R1 regulatory subunit of PI3K (p85), nSH2 domain, cloned from a HEK293T cDNA pool, UniProt P27986, residues 321-433; also called nSH2; PI3KR1 nSH2; source: E. coli BL21 (DE3), purified (Ni-NTA, anion exchange)

[2] = molecular target: T2, PTPRε first catalytic domain, inactive C335S mutant (107-399), MBP-tagged (human, UniProt P23469 107-399, C335S)
T2 construct: PTPRε receptor tyrosine phosphatase, first phosphatase domain, cloned from a HEK293T cDNA pool, UniProt P23469, residues 107-399; first cloned into pBH4 (N-terminal His6); also called receptor tyrosine phosphatase PTPRε; source: E. coli BL21 (DE3), purified (Ni-NTA, anion exchange)

[3] = molecular target: T3, PIK3R1 (p85) C-terminal SH2 domain (614-724) (human, UniProt P27986 614-724)
T3 construct: PIK3R1 regulatory subunit of PI3K (p85), cSH2 domain, cloned from a HEK293T cDNA pool, UniProt P27986, residues 614-724; also called cSH2; PI3KR1 cSH2; source: E. coli BL21 (DE3), purified (Ni-NTA, anion exchange)
T3 sequence (P27986 614-724): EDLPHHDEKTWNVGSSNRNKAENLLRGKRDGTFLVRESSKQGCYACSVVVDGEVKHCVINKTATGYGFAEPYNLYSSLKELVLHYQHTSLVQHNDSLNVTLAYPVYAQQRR

T1 sequence (P27986 321-433): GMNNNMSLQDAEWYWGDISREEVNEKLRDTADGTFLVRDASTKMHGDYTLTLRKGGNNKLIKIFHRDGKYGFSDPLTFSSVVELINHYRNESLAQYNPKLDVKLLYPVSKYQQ
T2 sequence (P23469 107-399 C335S): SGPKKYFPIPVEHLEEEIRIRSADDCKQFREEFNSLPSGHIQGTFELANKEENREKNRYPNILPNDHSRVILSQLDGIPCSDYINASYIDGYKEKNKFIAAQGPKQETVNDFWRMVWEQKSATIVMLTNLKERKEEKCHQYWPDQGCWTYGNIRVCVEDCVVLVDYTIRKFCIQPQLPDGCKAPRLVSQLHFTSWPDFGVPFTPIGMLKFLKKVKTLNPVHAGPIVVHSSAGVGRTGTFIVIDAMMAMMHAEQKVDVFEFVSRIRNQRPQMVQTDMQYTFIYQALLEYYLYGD

B1: p0CD28, CD28 peptide with phosphotyrosine only (pY191) (peptide)
peptide: RSRLLHSD[pY]MNMTPRR
notes: human CD28 T-cell costimulatory receptor, cytoplasmic YMNMTP motif, 16 amino acids; also called singly Tyr phosphorylated CD28 peptide; source: synthetic peptide, bought: GeneScript Inc
binding result [1]: binds
binding result [2]: binds
binding result [3]: binds

B2: ppCD28, CD28 peptide dually phosphorylated (pY191 + pT195) (peptide)
peptide: RSRLLHSD[pY]MNM[pT]PRR
notes: human CD28 T-cell costimulatory receptor, cytoplasmic YMNMTP motif, 16 amino acids; also called pY191-pT195 peptide; source: synthetic peptide, bought: GeneScript Inc
binding result [1]: binds
binding result [2]: binds
binding result [3]: binds

Other lines, results leading:

binding result [1]: binds
binding result [3]: binds
B3: p0IRS1, IRS1 peptide with phosphotyrosine only (pY632) (peptide)
peptide: GRKGSGD[pY]MPMSPKS
notes: human IRS1, 2nd YxxMSP motif around Y632, 15 amino acids; also called singly phosphorylated model peptide; pTyr peptide; source: synthetic peptide, bought: GeneScript Inc

binding result [1]: binds
binding result [3]: binds
B4: ppIRS1, IRS1 peptide dually phosphorylated (pY632 + pS636) (peptide)
peptide: GRKGSGD[pY]MPM[pS]PKS
notes: human IRS1, 2nd YxxMSP motif around Y632, 15 amino acids; also called pY632-pS636 peptide; dually phosphorylated model peptide; source: synthetic peptide, bought: GeneScript Inc
